Assay results taken from the supplement of paper PMC10126150.
± gives the standard deviation of the averaged measurements.

Test system: ATP
Assay: switch fluorescence ratio, 500 uM ATP over buffer (Cy3 cluster intensity, sum of 5 cycles each) (fold (ratio)); higher = stronger signal-on switching upon ATP binding; sequences stand for … in TCGTCGGCAGCGTCAGATGTGTATAAGAGACAGTTTTTTTTTTTTTTTTTTTTTTTTT…TC
Conditions: aptamer strand: ATP DNA aptamer (quencher-CACCTGGGGGAGTATTGCGGAGGAAGG + anchor), 100 nM annealed; ATP concentration: 500 uM
In short: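 After annealing to 100 nM quencher-labelled ATP aptamer, Cy3-labelled switching-strand clusters on a modified Illumina MiSeq flow-cell were imaged in selection buffer. A second image followed after 15 min with 500 uM ATP at 22 °C, and five such buffer/ATP cycles were done, each separated by NaOH stripping and re-annealing. The fluorescence ratio, averaged per switch-domain sequence, is summed target-cycle over summed buffer-cycle Cy3 intensity per cluster, with clusters outside 100-1000 RFU excluded.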
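Note: ATP exposure 15 min at 22 °C before imaging.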

Sequence | switch fluorescence ratio
CAACTAAAAA | 1.01 ± 0.032
CTTGAAAGAT | 0.99786 ± 0.00087
GAAAAAAAGG | 0.982 ± 0.051
CTAGGTGATC | 1.07 ± 0.044
CCTATAATAG | 1.17 ± 0.064
TTTTGTTAAT | 1.01 ± 0.035
TTTGCGGGAT | 1.03 ± 0.014
ATTAAGGA | 1 ± 0.051
CAAGGGATTG | 0.992 ± 0.0058
AGGGGGAAAA | 1.47 ± 0.69
TGGCGTTGGG | 1.02 ± 0.046
GACCCTGGGT | 1.06 ± 0.033
CGGAGGTATA | 1.14 ± 0.017
CGGTGTAGCC | 1.02 ± 0.014
CAGGTGGGGT | 1.16 ± 0.08
ACGGGGGAGC | 1.03 ± 0.043
GGGGGTGGCA | 0.998 ± 0.042
AGGCCTCTGT | 0.99 ± 0.011
TTCAGGGGGA | 1.02 ± 0.023
AATCGAGGGG | 0.991 ± 0.03
TAAAAAACCG | 1.03 ± 0.025
ATAATGGGGG | 0.977 ± 0.027
TTTTTAGAG | 0.999 ± 0.021
GGTTCTTATT | 1.017 ± 0.0064
CTGAATCCTA | 1.01 ± 0.017

Sequence | switch fluorescence ratio
GAAGAAAGAG | 1.02 ± 0.022
TGGGGCATTT | 1 ± 0.036
TGGGTTAATT | 0.989 ± 0.026
TGGCGGATTT | 0.998 ± 0.031
CGGTGGATCA | 0.992 ± 0.017
AGAGATGTAG | 0.966 ± 0.023
TCAACAGGA | 1.01 ± 0.033
ATCTGCGGGA | 1.05 ± 0.042
ATTTTATTCT | 1.003 ± 0.0076
GACCCGCTTG | 1.06 ± 0.013
CTGGTCGGGT | 1 ± 0.006
TAGGGCATTT | 1.03 ± 0.056
GTGGGTGGGT | 1 ± 0.025
TTAGCGTGCG | 0.953 ± 0.054
TTTTTTTCCA | 1.02 ± 0.013
TTTCCAAGGT | 1.12 ± 0.11
GGCGGGGGAG | 1.03 ± 0.021
AACTGGGACT | 1.02 ± 0.041
AAAGGGGACC | 1.09 ± 0.053
GGGCCAGTGC | 1.03 ± 0.043
TTGGATACCT | 1.05 ± 0.13
GAGAATTTGT | 0.978 ± 0.033
ACAGTCTGAC | 1.0082 ± 0.00053
TAAAAGGTGA | 0.99 ± 0.029
GGTCTGAGGG | 0.97 ± 0.032

Sequence | switch fluorescence ratio
GGCATCGAAG | 1 ± 0.027
GGGTTTGAA | 0.988 ± 0.021
CGGTCATCTT | 0.9991 ± 0.0047
TTCAATTGTT | 1.02 ± 0.017
CGTGGCGCGG | 0.9942 ± 0.0096
TAATAATCCA | 0.994 ± 0.017
CGAGGGGTCC | 0.975 ± 0.043
AGAAGTGATA | 0.976 ± 0.023
TTCGTTTGAC | 1.03 ± 0.1
AGGCCGGTGC | 1.04 ± 0.03
TAAAAGGCGG | 1.03 ± 0.029
TATGAAAAGT | 0.9926 ± 0.0072
TCGTTTGGAG | 0.998 ± 0.022
AGTAGTGCGT | 0.997 ± 0.04
GTCAGTAGGC | 0.991 ± 0.017
CGGTTCGTGG | 1.004 ± 0.0068
TTTCTGAGTT | 1.01 ± 0.032
TGAGAGCTGG | 0.98517 ± 0.00094
TTGGCTAATT | 1 ± 0.034
TGGGGCCTAA | 1.02 ± 0.013
CAGTAAATGT | 0.984 ± 0.054
TCGGGAAGAG | 0.98832 ± 5e-05
GGGAGGGGGC | 1.01 ± 0.075
CAACGGTTGG | 1.01 ± 0.045
AAGGGACGGG | 1.01 ± 0.027

Sequence | switch fluorescence ratio
ATGTCCCGGT | 0.974 ± 0.025
GATACAGCTA | 1.03 ± 0.042
TAGGAGTAAC | 0.9812 ± 0.0037
GGCAGGATAT | 1.016 ± 0.0056
AATTTAAAGT | 0.951 ± 0.052
TCGTATAAGG | 0.982 ± 0.037
TTTAGGTGGT | 1.11 ± 0.2
TCGAGGGAAC | 1.03 ± 0.018
GGTGGGGGAT | 1.01 ± 0.015
TTGAGTAATG | 1.01 ± 0.017
AACTAGGTGT | 1.15 ± 0.22
TTTGTCAGAT | 0.98 ± 0.013
GGCTGTACTT | 1.03 ± 0.047
AATTATCTGC | 0.976 ± 0.015
TTTGGCTTTC | 1.06 ± 0.016
TGCCGCAAAA | 1.82 ± 0.85
ACAATGGGTA | 1.03 ± 0.024
TTAAGTTTAC | 1.01 ± 0.038
GGGCAGAAAG | 1.01 ± 0.075
TATAAGCTAG | 1.03 ± 0.017
CGCTGGCATG | 1 ± 0.032
TTTAGGGGAT | 1.01 ± 0.038
CATGTTGAGC | 0.9959 ± 0.0081
GGAAGGTTTT | 0.97669 ± 0.00029
CGCAGTTATT | 1.08 ± 0.014

Sequence | switch fluorescence ratio
AGCCTAATGG | 0.995 ± 0.041
TAGGGGTCTC | 1.07 ± 0.038
GTAAGGGGCG | 1.02 ± 0.035
GCGTTTAATA | 0.997 ± 0.014
CCGATTGTTG | 1.02 ± 0.038
TCGTACGCTA | 3.38 ± 0.084
CGCTCCGGGG | 1.06 ± 0.07
GTGACTCCGA | 1.78 ± 0.12
GAATAAATTT | 1.02 ± 0.069
ACGATTAGAC | 1.12 ± 0.029
TTAAGGGATG | 1.03 ± 0.043
GTGTGTTTAG | 0.9892 ± 0.0058
GAGGCTGGGA | 0.988 ± 0.032
GTTCCAGAGG | 1.03 ± 0.011
TTTTAGCAGA | 1.06 ± 0.016
ATATTAAAGT | 1.038 ± 0.0047
CCACGGGTTA | 1.045 ± 0.005
GACTGCGGAG | 1 ± 0.026
AATGGATACT | 1.03 ± 0.012
ATTCGTTTGT | 0.9869 ± 0.0038
ACGGGCGGCA | 1.16 ± 0.23
TATGTTGTGT | 0.96 ± 0.037
TTACGTGCTG | 0.9806 ± 0.0083
TGTGTTTGGT | 0.979 ± 0.021
CTGGTCGTGC | 0.999 ± 0.013

Sequence | switch fluorescence ratio
ACGTACACTT | 1.45 ± 0.074
ACCGTGGCGT | 1.0212 ± 0.001
ACCATTGGGG | 0.993 ± 0.031
ACACCTCATA | 1.1 ± 0.039
CGCTTTGGAA | 0.964 ± 0.064
CACGGAGGAG | 1.05 ± 0.055
TCACATGTGG | 1.03 ± 0.044
TCATGACCCA | 1.03 ± 0.018
TTGGGTATAT | 0.979 ± 0.037
TTATCTAAGT | 1 ± 0.036
GAGTATTTAA | 0.964 ± 0.058
AGAGTTGTGG | 0.982 ± 0.024
ATATTAAGAT | 0.988 ± 0.028
CTCGGGGTTG | 1.022 ± 0.008
TGAAGGGAAA | 1 ± 0.051
TGTTCAGGTG | 3.38 ± 0.15
GCCAACGCTG | 1.1 ± 0.046
GGACTGTGGG | 1.02 ± 0.044
CCGTGGGACC | 1.11 ± 0.016
TTGGGTGTGG | 1.01 ± 0.037
AACCTCACTC | 1.49 ± 0.13
TTGCCAGTGT | 0.996 ± 0.028
GTACCTTGAT | 1.05 ± 0.015
TGGTGCTCAT | 0.994 ± 0.024
AAAATGGTTG | 1.04 ± 0.032

Sequence | switch fluorescence ratio
GTTCGTGTGG | 0.987 ± 0.028
CCAGAGACCG | 1.04 ± 0.012
GCGGAAAAAG | 0.957 ± 0.011
AATTTGCTAA | 0.981 ± 0.013
GAGGGGGCTA | 1.02 ± 0.029
TAAATTGCTT | 0.991 ± 0.012
TTACGAAACG | 1.08 ± 0.045
CTTATCGAAG | 0.968 ± 0.015
GATGTTTGTG | 0.992 ± 0.045
ATCCCTCATA | 1.01 ± 0.018
TCTGACGGTG | 1.01 ± 0.017
TAAGTTAGGT | 1.03 ± 0.1
TGAGTTAGTT | 1.01 ± 0.016
AGGCTATTTC | 0.994 ± 0.019
CGATGTAGTC | 1.05 ± 0.022
CGGAGTACAG | 1.09 ± 0.11
CAGAAAGAGC | 0.969 ± 0.0086
TAAAACATTG | 1.03 ± 0.015
CCAATTGTGG | 0.9977 ± 0.0056
TTATTAAGTG | 1 ± 0.017
CTGTGCTAGG | 1.01 ± 0.011
ACTTAGCAGG | 1.08 ± 0.013
ACCCTTCCAA | 1.72 ± 0.072
AGACGATTAG | 0.977 ± 0.03
CTTATCAATT | 1 ± 0.018

Sequence | switch fluorescence ratio
GCGATCGGTT | 1.01 ± 0.049
TGAGGTAGCG | 0.981 ± 0.034
GCACTGTGGC | 0.992 ± 0.032
AGGGGGTTAG | 0.989 ± 0.03
TGATTCTGTG | 1.02 ± 0.03
ATCGCCCGTT | 1.01 ± 0.016
GGGCCCTTTT | 0.976 ± 0.019
AGTAGGGGG | 1 ± 0.056
AGGCGTGCTT | 0.987 ± 0.032
TTATACATGG | 1.07 ± 0.0024
ACTCAGCGCG | 1.08 ± 0.029
CTTAGTAGT | 0.973 ± 0.024
AAAGTGGCGT | 0.984 ± 0.08
CTAGGCCGGG | 0.98 ± 0.025
TTGTTTGTCC | 1.03 ± 0.058
TCGGGGGCTT | 0.996 ± 0.015
ACTAATCGTG | 1.02 ± 0.011
TAGGGGTGTA | 1 ± 0.04
GTGCATGCGT | 0.998 ± 0.03
CGATTTGGGG | 0.968 ± 0.017
AAGGTTATGT | 0.991 ± 0.02
AAAGAAGCTT | 1.02 ± 0.041
CAATTTTTAA | 0.9798 ± 0.0088
CAGCGCGGGA | 0.999 ± 0.014
AATATTGGTG | 1.0416 ± 0.001
